Patent US20080187554A1, “Process for producing stable HIV Th-CTL peptides” (Wyeth, priority 2005, published 2008)

Assay: Stability by RP-HPLC for peptide quantification
Format: physicochemical
Conditions: lyophilized, 40° C., six-months time point, all three concentrations (FIGS. 6-8)
Source text: The stability was also monitored for pre-lyophilization formulations. Stability assays basically include appearance (visual inspection), pH, FLS, peptide fluorescence, and RP-HPLC for peptide quantification.

H-Lys-Gln-Ile-Ile-Asn-Met-Trp-Gln-Glu-Val-Gly-Lys-Ala-Met-Tyr-Ala-Lys-Ala-Phe-Ser-Pro-Glu-Val-Ile-Pro-Met-Phe-OH (H-KQIINMWQEVGKAMYAKAFSPEVIPMF-OH; also: acetate salt) [Peptide A, HIV Th/CTL peptide]
potency change at accelerated temperature: potency decreases
